The record followed here is US20050208041A1 (Bristol-Myers Squibb, published 2005).

Like-named read-outs stand apart in the source and are kept apart here.

For test [1], the target named is T1, purified recombinant IFNAR-1 extracellular fragment (human, UniProt P17181 28-436).
T1 construct: extracellular domain; also called soluble IFNAR-1; soluble IFNAR
T1 sequence (looked up): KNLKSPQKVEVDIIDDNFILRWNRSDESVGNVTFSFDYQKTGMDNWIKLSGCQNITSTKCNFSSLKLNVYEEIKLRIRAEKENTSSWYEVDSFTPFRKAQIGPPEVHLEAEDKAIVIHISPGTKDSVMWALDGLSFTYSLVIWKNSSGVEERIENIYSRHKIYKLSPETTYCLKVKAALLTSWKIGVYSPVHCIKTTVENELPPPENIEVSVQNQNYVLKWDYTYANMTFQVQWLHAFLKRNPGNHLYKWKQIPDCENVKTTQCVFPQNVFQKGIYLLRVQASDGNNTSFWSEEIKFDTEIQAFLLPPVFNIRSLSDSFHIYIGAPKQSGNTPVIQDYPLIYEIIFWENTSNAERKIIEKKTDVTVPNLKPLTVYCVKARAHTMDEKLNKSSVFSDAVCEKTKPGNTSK
The test is described as follows: Biacore, IFNAR-1 extracellular fragment coupled to CM5 chip, antibody 1.75-80 nM. Here is the method: Antibodies from clones 64G12, H2K6, H2K1, H3K6, and H3K1 were assayed by Biacore analysis (Biacore AB, Uppsala, Sweden) to determine binding kinetics. Purified recombinant IFNAR-1 extracellular fragment was coupled to the CM5 sensor chip @ 600 RU. Binding was measured by adding antibody at concentrations from 1.75-80 nM at a flow rate of 20 ul/min. The binding curves were fit to a Langmuir binding model using BIAevaluation software (Biacore AB, Uppsala, Sweden).

Test [2] addresses T2, IFNAR-1 on human cells (human, UniProt P17181 28-557).
T2 sequence (looked up): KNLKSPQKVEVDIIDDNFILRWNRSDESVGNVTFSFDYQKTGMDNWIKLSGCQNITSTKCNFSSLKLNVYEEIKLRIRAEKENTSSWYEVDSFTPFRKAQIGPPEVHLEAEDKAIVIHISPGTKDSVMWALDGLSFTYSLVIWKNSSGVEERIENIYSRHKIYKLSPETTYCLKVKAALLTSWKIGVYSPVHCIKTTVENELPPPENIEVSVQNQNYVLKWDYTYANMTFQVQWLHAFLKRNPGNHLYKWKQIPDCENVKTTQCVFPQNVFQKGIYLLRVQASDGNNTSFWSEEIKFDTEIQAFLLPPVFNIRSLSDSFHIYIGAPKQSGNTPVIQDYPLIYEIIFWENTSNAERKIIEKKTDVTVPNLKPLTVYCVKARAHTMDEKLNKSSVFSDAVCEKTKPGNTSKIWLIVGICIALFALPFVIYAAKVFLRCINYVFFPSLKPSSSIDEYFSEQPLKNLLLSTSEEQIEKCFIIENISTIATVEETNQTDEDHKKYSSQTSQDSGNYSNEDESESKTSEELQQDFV
Description: cell-based or functional assay.

In test [3] the target is T1, purified recombinant IFNAR-1 …. Description: Receptor Binding (Biacore), purified recombinant receptor; Biacore, purified recombinant receptor (not BALL-1 cells).
The target in test [4] is T2, IFNAR-1 on human cells. Description: cell-based or functional assay. The source holds these as a separate data set.
The target in test [5] is T2, IFNAR-1 on human cells. The test is described as follows: Scatchard analysis, 125I-labelled antibody on BALL-1 cells. Here is the method: BALL-1 cells, which express IFNAR-1 and IFNAR-2, were used to assess the binding of anti-IFNAR-1 humanized antibodies to cells by Scatchard analysis. The cells were grown in RPMI containing 10% FCS and washed twice with Hanks Balanced Salt Solution (HBSS) at 4 degrees C. […] Millipore plates (MAFB NOB) were coated with 1% nonfat dry milk in water and stored a 4° C. overnight. The plates were washed with binding buffer and 25 ul of unlabeled antibody (1000-fold excess) in TBS binding buffer was added to control wells in a Millipore 96 well glass fiber filter plate (non-specific binding NSB). Twenty-five microliters of buffer alone was added to the maximum binding control well (total binding). Twenty-five microliters of ¹²⁵I-anti-IFNAR-1 antibody and 25 ul of BALL-I cell suspension (4×10⁷ cells/ml) in TBS binding buffer were added. The plates were incubated for 2 hours at 200 RPM on a shaker at 4° C. At the completion of the incubation the Millipore plates were washed twice with 0.2 ml of cold TBS binding buffer containing a final concentration of 0.5 M NaCl. The filters were removed and counted in a gamma counter. Evaluation of equilibrium binding was performed using single site binding parameters with the Prism software (San Diego, Calif.).
Therefore in either a protein-based or cell-based assay, the binding affinity of the antibodies are in the low nM range.

The target of test [6] is T1, purified recombinant IFNAR-1 …. Description: Biacore, response on IFNAR-1 (flow cell 2) divided by response on anti-human IgG Fc (flow cell 4). The source says: A series of antibodies were constructed with reduced numbers of potential T-cell epitopes. These included heavy chain variants M3-A and M3-B in which residues were changed in CDR regions and DI M3 in which framework residues were altered. De-immunized light chains were also constructed termed K1-C, K1-D, K1-E and DI K1. The antibodies were expressed and purified before analysis by Biacore. A Biacore chip was used with IFNAR-1 coated on Flow cell 2 at 690 RU and anti-human IgG Fc on flow cell 4 at 5000 RU. Binding of the antibody to IFNAR-1 relative to anti-human IgG Fc was determined by the ratio of response at flow cell 2 divided by flow cell 4 (Fc2/Fc4).

Test [7] shares this target. The test is described as follows: Biacore, antibody captured on anti-human IgG Fc, soluble IFNAR-1 25-400 nM, flow cell 4-3 higher density capture. The source says:
(§1) The binding affinity of M3K1 was compared to that of H3K1.

For test [8] the target is unchanged. The test is described as follows: Biacore, antibody captured on anti-human IgG Fc, soluble IFNAR 25-400 nM, flow cell 2-1 low density capture; Flow cell 2-1, low density capture.
Source text: as §1

Test [9] shares this target. The test is described as follows: Biacore, antibody captured on anti-human IgG Fc, soluble IFNAR 25-400 nM, flow cell 2-1 low density capture.
Test [10] has the same target. Description: Biacore, antibody captured on anti-human IgG Fc, soluble IFNAR-1 25-400 nM, flow cell 2-1 low density capture.
Source text: as §1

Test [11] shares this target. The test is described as follows: Biacore, antibody captured on anti-human IgG Fc, soluble IFNAR 25-400 nM, flow cell 4-3 higher density capture.
The target is the same in test [12]. Description: Biacore, maximal association on IFNAR-1 relative to M3K1. The source says: (§2) Pools 4 and 11 were selected for further study and the individual antibodies in each pool were produced and expressed separately. The sequences of these individual antibodies were as shown in SEQ ID NO:12 of FIG. 1F and SEQ ID NO: 13 of FIG. 1G. The data is presented as maximal association relative to M3K1. […]

The target is the same in test [13]. The description is as above.
Source text: as §2
This is another data set of the same source.

For test [14] the target is unchanged. The test is described as follows: Biacore, antibody on immobilized soluble IFNAR-1, maximal response, mean of four. The method, then:
Additional combination variants heavy chain DI M3-B and light chain DI K1-C were also made. These combination variants were also tested for binding to IFNAR-1. […] Binding analysis was done by Biacore, with the antibody bound to immobilized soluble IFNAR-1. Maximal response was determined at two concentrations and values shown are mean of four determinations.

B1: H2K6 (antibody, V domains shown)
VH: QVTLKESGPALVKPTQTLTLTCTFSGFSLSTSGMGIGWIRQPPGKALEWLAHIWWDDDKYYNPSLKSRLTISRDTSKNQVVLTMTNMDPVDTATYYCGRNYYPYDAWFDYWGQGTLVTVS
VL: EIVLTQSPDFQSVTPKEKVTITCSASSSINSNHLHWYQQKPGQSPKLLIYRTSILASGVPSRFSGSGSGTSFTLTINSLEAEDVATYYCQQGSNIPFTFGQGTKLEIKR
notes: Full-length antibody with human IgG constant regions; also called heavy chain H2 with light chain K6
Take B1: the Kd in test [1] was 1.3 nM.

B2: murine monoclonal antibody 64G12 (antibody, V domains shown)
VH: QVTLKESGPGILKPSQTLSLTCSFSGFSLSTSGMGIGWIRQPSGKGLEWLAHIWWDDDKYYNPSLKSQLTISRDTSTNQVFLNITSVDTVDTATYYCGRNYYPYDAWFDYWGQGTLVTVS
VL: EIVLTQSPTTMAASPGEKITITCSASSSINSNHLHWYQQKPGFSPKVLIYRTSILASGVPTRFSGSGSGTSYSLTIGTMEAEDVATYYCQQGSNIPFTFGSGTELEIKR
notes: Mouse IgG1, kappa light chain; also called 64G12 (mouse IgG1); murine anti-IFNAR-1 mAb 64G12
For the molecule B2, the “fold decrease in ISRE-RG reporter assay with IFNβ, potency against H3K1 (IgG1)” value with IFNAR-1 on human cells [2] is 3 fold. Moreover, the Kd was found to be 1.2 nM in test [3], 3.9 nM in the test with IFNAR-1 on human cells [5] and 1.2 nM in test [1]. Moreover, in the test with IFNAR-1 on human cells [4], the “Cell Proliferation (Daudi) IC50, cells cultured with interferon α2b” value was 2.1 nM. The “ISRE-RG Reporter (U937) IC50, interferon α2b” value with IFNAR-1 on human cells [4] was found to be 5.8 nM.

B3: H3K1 (IgG1) (antibody, V domains shown)
VH: EVQLVESGGGLVQPGGSLRLSCAFSGFTLSTSGMGIGWVRQAPGKGLEWVAHIWWDDDKYYNPSLKSRFTISRDTSKNTVYLQMNSLRAEDTAVYYCARNYYPYDAWFDYWGQGTLVTVS
VL: DIQMTQSPSSLSASVGDRVTITCSASSSINSNHLHWYQQKPGKAPKLLIYRTSILASGVPSRFSGSGSGTSFTLTISSLQPEDFATYYCQQGSNIPFTFGQGTKVEIKR
In the case of B3, the “ISRE-RG reporter assay with IFNβ, potency against H3K1 (IgG4)” value in the test with IFNAR-1 on human cells [2] is about 10 fold. For the same molecule, in the test with IFNAR-1 on human cells [4], the “Cell Proliferation (Daudi) IC50, cells cultured with interferon α2b” value stood at 3.9 nM and the “ISRE-RG Reporter (U937) IC50, interferon α2b” value amounted to 2.7 nM.

B4: M3K1 (antibody, V domains shown)
VH: EVQLLESGGGLVQPGGSLRLSCAFSGFTLSTSGMGIGWVRQAPGKGLEWVAHIWWDDDKYYNPSLKSRFTISRDTSKNTVYLQMNSLRAEDTAVYYCARNYYPYDAWFDYWGQGTLVTVS
VL: DIQMTQSPSSLSASVGDRVTITCSASSSINSNHLHWYQQKPGKAPKLLIYRTSILASGVPSRFSGSGSGTSFTLTISSLQPEDFATYYCQQGSNIPFTFGQGTKVEIKR
notes: also called heavy chain M3 with light chain K1
On to B4, for which the “% activity relative to H3K1” value in [6] came to 140%. For the same molecule, the Fc2/Fc4 in test [6] stood at 0.42. The equilibrium dissociation constant (Kd) in test [7] is 7.99 nM; in [9], 7.09 nM; in [10], 7.09 nM; in test [11] it was 7.99 nM. In addition, the koff in test [7] is 4.39e-05 s⁻¹; in test [9] it was 3.79e-05 s⁻¹; in test [10], 3.79e-05 s⁻¹; in test [11], 4.39e-05 s⁻¹. Besides, the kon in [7] was 5490 M⁻¹ s⁻¹; in [8] it was 5340 M⁻¹ s⁻¹; in [10], 5340 M⁻¹ s⁻¹; in test [11], 5490 M⁻¹ s⁻¹. Further, the “% activity relative to M3K1” value in test [12] and in [13] was 100% each time. The “% response relative to H3K1” value in test [14] worked out at 97%.

B5: H2K1 (antibody, V domains shown)
VH: QVTLKESGPALVKPTQTLTLTCTFSGFSLSTSGMGIGWIRQPPGKALEWLAHIWWDDDKYYNPSLKSRLTISRDTSKNQVVLTMTNMDPVDTATYYCGRNYYPYDAWFDYWGQGTLVTVS
VL: DIQMTQSPSSLSASVGDRVTITCSASSSINSNHLHWYQQKPGKAPKLLIYRTSILASGVPSRFSGSGSGTSFTLTISSLQPEDFATYYCQQGSNIPFTFGQGTKVEIKR
notes: Full-length antibody with human IgG constant regions; also called heavy chain H2 with light chain K1
For the molecule B5, the Kd in test [1] came out at 0.8 nM.

B6: H3K6 (antibody, V domains shown)
VH: EVQLVESGGGLVQPGGSLRLSCAFSGFTLSTSGMGIGWVRQAPGKGLEWVAHIWWDDDKYYNPSLKSRFTISRDTSKNTVYLQMNSLRAEDTAVYYCARNYYPYDAWFDYWGQGTLVTVS
VL: EIVLTQSPDFQSVTPKEKVTITCSASSSINSNHLHWYQQKPGQSPKLLIYRTSILASGVPSRFSGSGSGTSFTLTINSLEAEDVATYYCQQGSNIPFTFGQGTKLEIKR
notes: Full-length antibody with human IgG constant regions; also called heavy chain H3 with light chain K6
As for B6, in [1], the Kd worked out at 1.8 nM.
